{
  "source": "patent US20130274129",
  "tested_on": "AvrBs3-KRAB",
  "test": "cell_activity",
  "settings": "two copies of TAL site, LacZ reporter, 293FT; around 40% with one copy",
  "data": [
    {"substance": "AvrBs3 TAL binding site in CMV promoter reporter", "values": [
      {"measurement": "activity", "result": 70, "unit": "% repression"}
    ]}
  ]
}
